PMC3828517 (Genes & Development, 2013)
Blank lines part the entries; values can stand above or below the molecule they belong to.

What was measured:
[1] = molecular target: Lrp6 β-propeller domains 1–2 (BP1–2), His8-tagged (human); test: AlphaScreen or HTRF
crystal structure = molecular target: the molecule itself; test: crystal structure
[2] = molecular target: T1, MBP-Norrin (human Norrin residues 25–133 fused to the C terminus of maltose-binding protein) (human), Q00604; test: SEC; conditions: remark: other sources report otherwise
T1 chain: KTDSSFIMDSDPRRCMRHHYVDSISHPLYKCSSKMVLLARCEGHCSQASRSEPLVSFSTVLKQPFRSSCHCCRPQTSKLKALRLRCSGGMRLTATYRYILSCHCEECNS

[3] = molecular target: T2, Fz4-FcH6 (Frizzled 4 cysteine-rich domain fused with an FcH6 tag) (human, UniProt Q9ULV1 40-164); test: BLI
T2 sequence: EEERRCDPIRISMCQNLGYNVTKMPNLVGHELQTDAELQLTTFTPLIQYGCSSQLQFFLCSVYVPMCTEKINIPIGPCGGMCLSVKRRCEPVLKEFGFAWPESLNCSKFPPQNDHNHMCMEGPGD

[4] = molecular target: T3, Lrp6BP2-FcH6 (Lrp6 β-propeller 2 as an Fc fusion protein) (human, UniProt O75581 325-631); test: BLI
T3 sequence: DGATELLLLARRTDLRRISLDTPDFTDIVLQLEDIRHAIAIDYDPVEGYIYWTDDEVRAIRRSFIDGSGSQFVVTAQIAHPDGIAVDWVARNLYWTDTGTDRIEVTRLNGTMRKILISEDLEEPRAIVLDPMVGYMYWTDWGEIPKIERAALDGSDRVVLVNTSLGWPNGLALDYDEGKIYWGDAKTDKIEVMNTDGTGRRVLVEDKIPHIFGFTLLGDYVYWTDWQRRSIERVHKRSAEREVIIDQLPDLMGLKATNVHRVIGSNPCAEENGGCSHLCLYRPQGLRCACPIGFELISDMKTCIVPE

[5] = molecular target: T2, Fz4-FcH6 (Frizzled 4 cysteine-rich …); test: AlphaScreen or HTRF
[6] = molecular target: T3, Lrp6BP2-FcH6 (Lrp6 β-propeller 2 as an …); test: AlphaScreen or HTRF

- IC50 [1]: 288 nM
Molecule: MBP-Norrin R41E mutant protein (from UniProt Q00604 25-133) (ligand)

- IC50 [1]: 207 nM
Molecule: MBP-Norrin C55A/C110A mutant protein (from UniProt Q00604 25-133) (ligand)

B1: MBP-Norrin truncation construct (Norrin residues 31–133 fused with MBP at its N terminus), as crystallized (ligand)
chain: IMDSDPRRCMRHHYVDSISHPLYKCSSKMVLLARCEGHCSQASRSEPLVSFSTVLKQPFRSSCHCCRPQTSKLKALRLRCSGGMRLTATYRYILSCHCEECNS
- binding result (crystal structure): binds

- stoichiometry N [2]: 2
B2: MBP-Norrin (human Norrin residues 25–133 fused to the C terminus of maltose-binding protein), Q00604 25-133 (ligand)
chain: KTDSSFIMDSDPRRCMRHHYVDSISHPLYKCSSKMVLLARCEGHCSQASRSEPLVSFSTVLKQPFRSSCHCCRPQTSKLKALRLRCSGGMRLTATYRYILSCHCEECNS

- Kd [3]: 5 nM
- binding result [4]: binds
- IC50 [5]: 34 nM
B3: MBP-Norrin (human Norrin residues 25–133 fused to the C terminus of maltose-binding protein) (ligand)
chain: KTDSSFIMDSDPRRCMRHHYVDSISHPLYKCSSKMVLLARCEGHCSQASRSEPLVSFSTVLKQPFRSSCHCCRPQTSKLKALRLRCSGGMRLTATYRYILSCHCEECNS

- Kd [5]: 11 nM
- binding result [6]: binds
B4: biotinylated MBP-Norrin (AviTag-MBP-Norrin, biotinylated in vivo) (ligand)
chain: KTDSSFIMDSDPRRCMRHHYVDSISHPLYKCSSKMVLLARCEGHCSQASRSEPLVSFSTVLKQPFRSSCHCCRPQTSKLKALRLRCSGGMRLTATYRYILSCHCEECNS
modifications: biotin on the AviTag (in vivo biotinylation by BirA)

- IC50 [5]: 18 nM
B5: MBP-Norrin K54E/R109E mutant protein (ligand)
chain: KTDSSFIMDSDPRRCMRHHYVDSISHPLYECSSKMVLLARCEGHCSQASRSEPLVSFSTVLKQPFRSSCHCCRPQTSKLKALRLECSGGMRLTATYRYILSCHCEECNS

- IC50 [5]: 37 nM
B6: MBP-Norrin C55A/C110A mutant protein (ligand)
chain: KTDSSFIMDSDPRRCMRHHYVDSISHPLYKASSKMVLLARCEGHCSQASRSEPLVSFSTVLKQPFRSSCHCCRPQTSKLKALRLRASGGMRLTATYRYILSCHCEECNS
